Results published in patent publication US20210380703A1 (RIGEL PHARMACEUTICALS, published 2021).

Columns and labels:
[1] = biological target: T1, biotinylated goat anti-human kappa light chain; assay: ELISA, positive control
T1 construct: positive control of the ELISA
In short: (§1)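 Monoclonal antibodies were first applied to human or mouse ACVR2A, alongside biotinylated goat anti-human kappa light chain (positive control) and human Fc (negative control); binding was then determined by ELISA.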

[2] = biological target: T2, mouse ACVR2A (mouse, UniProt P27038 20-135, limits assumed); assay: ELISA
T2 construct: coated antigen of the initial ELISA
In short: as §1

[3] = biological target: T3, human ACVR2A (human, UniProt P27037 20-135, limits assumed); assay: ELISA
T3 construct: coated antigen of the initial ELISA; also called activin receptor, type II A
In short: as §1
Note: test concentration or dose not given here.

T2 sequence (P27038 20-135 limits assumed): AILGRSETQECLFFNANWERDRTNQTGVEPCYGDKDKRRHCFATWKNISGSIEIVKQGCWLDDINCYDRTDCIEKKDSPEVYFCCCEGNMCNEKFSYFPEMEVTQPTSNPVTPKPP
T3 sequence (P27037 20-135 limits assumed): as the sequence (P27038 20-135 limits assumed) above, with R20K, I73V counted along it

| Binder | optical density [1] | optical density [2] | optical density [3] |
| --- | --- | --- | --- |
| 370_B11 (antibody, V domains shown, Group III) VH: EVQLLESGGGLVQPGGSLRLSCAASGFTFDSYSMNWVRQAPGKGLEWVSGINYNSGYTSYADSVKGRFTISRDNSKNTLYLQMNSLRAEDTAVYYCARGANWHDTHLDYWGQGTLVTVSS VL: DIQMTQSPSSLSASVGDRVTITCRASQSILSYLNWYQQKPGKAPKLVIYAATSRHSGVPSRFSGSGSGTDFTLTISSLQPEDFATYYCQQGYDLPLTFGGGTKVEIK | 3.69 OD | 2.45 OD | 2.08 OD |
| 370_B12 (antibody, V domains shown, Group III) VH: EVQLLESGGGLVQPGGSLRLSCAASGFTFSDYSMNWVRQAPGKGLEWVSGINYNGGYKGYADSVKGRFTISRDNSKNTLYLQMNSLRAEDTAVYYCARGANWHDTALDYWGQGTLVTVSS VL: DIQMTQSPSSLSASVGDRVTITCRASQSILSYVNWYQQKPGKAPKLVIYATTSRASGVPSRFSGSGSGTDFTLTISSLQPEDFATYYCQQSYETPLTFGGGTKVEIK | 3.56 OD | 3.08 OD | 2.92 OD |
| 370_D01 (antibody, V domains shown, Group III) VH: EVQLLESGGGLVQPGGSLRLSCAASGFTFSSYSMNWVRQAPGKGLEWVSSINYNGGYTGYADSVKGRFTISRDNSKNTLYLQMNSLRAEDTAVYYCARGANWHDTALDYWGQGTLVTVSS VL: DIQMTQSPSSLSASVGDRVTITCRASQSILSYLNWYQQKPGKAPKLLIYAATSRHSGVPSRFSGSGSGTDFTLTISSLQPEDFATYYCQQSYNTPLTFGGGTKVEIK | 3.66 OD | 3.17 OD | 3.14 OD |
| 370_D05 (antibody, V domains shown, Group III) VH: EVQLLESGGGLVQPGGSLRLSCAASGFTFDDYSMNWVRQAPGKGLEWVSNINYNGGYKGYADSVKGRFTISRDNSKNTLYLQMNSLRAEDTAVYYCARGANWHDTALDYWGQGTLVTVSS VL: DIQMTQSPSSLSASVGDRVTITCRASQSIITYLNWYQQKPGKAPKLVIYAATSRHSGVPSRFSGSGSGTDFTLTISSLQPEDFATYYCQQSYDTPLTFGGGTKVEIK | 3.49 OD | 3.12 OD | 2.98 OD |
| 370_F03 (antibody, V domains shown, Group III) VH: EVQLLESGGGLVQPGGSLRLSCAASGFTFSSYGMNWVRQAPGKGLEWVSSINYNSGYKSYADSVKGRFTISRDNSKNTLYLQMNSLRAEDTAVYYCARGANWHDTALDYWGQGTLVTVSS VL: DIQMTQSPSSLSASVGDRVTITCRASQSILSYVNWYQQKPGKAPKLLIYAATSRASGVPSRFSGSGSGTDFTLTISSLQPEDFATYYCQQSYENPLTFGGGTKVEIK | 3.3 OD | 1.25 OD | 1.14 OD |
| 370_H02 (antibody, V domains shown, Group III) VH: EVQLLESGGGLVQPGGSLRLSCAASGFTFDSYSMNWVRQAPGKGLEWVSGINYNSGYTSYADSVKGRFTISRDNSKNTLYLQMNSLRAEDTAVYYCARGANWHDTHLDYWGQGTLVTVSS VL: DIQMTQSPSSLSASVGDRVTITCRASQSILTYLNWYQQKPGKAPKLLIYAATSRASGVPSRFSGSGSGTDFTLTISSLQPEDFATYYCQQSYESPLTFGGGTKVEIK | 3.67 OD | 3.39 OD | 3.3 OD |
| 370_H07 (antibody, V domains shown, Group III) VH: EVQLLESGGGLVQPGGSLRLSCAASGFTFSSYSMNWVRQAPGKGLEWVAGINYNGGYKSYADSVKGRFTISRDNSKNTLYLQMNSLRAEDTAVYYCARGANWHDTALDYWGQGTLVTVSS VL: DIQMTQSPSSLSASVGDRVTITCRASQSILSYLNWYQQKPGKAPKLLIYAATSLASGVPSRFSGSGSGTDFTLTISSLQPEDFATYYCQQSDSSPLTFGGGTKVEIK | 3.51 OD | 3.25 OD | 3 OD |
| 371_A10 (antibody, V domains shown, Group III) VH: EVQLLESGGGLVQPGGSLRLSCAASGFTFDDYSMNWVRQAPGKGLEWVSGINYNGGYKGYADSVKGRFTISRDNSKNTLYLQMNSLRAEDTAVYYCARGANWHDTALDYWGQGTLVTVSS VL: DIQMTQSPSSLSASVGDRVTITCRASQSIVSYLNWYQQKPGKAPKLVIYAATSRASGVPSRFSGSGSGTDFTLTISSLQPEDFATYYCQQSYENPLTFGGGTKVEIK | 3.48 OD | 2.78 OD | 2.81 OD |
| 371_B03 (antibody, V domains shown, Group III) VH: EVQLLESGGGLVQPGGSLRLSCAASGFTFSSYGMHWVRQAPGKGLEWVASINYNGGYTSYADSVKGRFTISRDNSKNTLYLQMNSLRAEDTAVYYCARGANWHDTHLDYWGQGTLVTVSS VL: DIQMTQSPSSLSASVGDRVTITCRASQSILSYVNWYQQKPGKAPKLLIYATTSRASGVPSRFSGSGSGTDFTLTISSLQPEDFATYYCQQSYDNPLTFGGGTKVEIK | 3.48 OD | 1.94 OD | 1.63 OD |
| 371_B04 (antibody, V domains shown, Group III) VH: EVQLLESGGGLVQPGGSLRLSCAASGFTFSSYSMNWVRQAPGKGLEWVSGINYNGGYKSYADSVKGRFTISRDNSKNTLYLQMNSLRAEDTAVYYCARGANWHDTALDYWGQGTLVTVSS VL: DIQMTQSPSSLSASVGDRVTITCRASQSILSYLNWYQQKPGKAPKLVIYAVTSRHSGVPSRFSGSGSGTDFTLTISSLQPEDFATYYCQQSYDSPLTFGGGTKVEIK | 2.27 OD | 3.13 OD | 2.46 OD |
| 371_B09 (antibody, V domains shown, Group III) VH: EVQLLESGGGLVQPGGSLRLSCAASGFTFSSYSMNWVRQAPGKGLEWVAGINYNSGYTGYADSVKGRFTISRDNSKNTLYLQMNSLRAEDTAVYYCARGANWHDTHLDYWGQGTLVTVSS VL: DIQMTQSPSSLSASVGDRVTITCRASQSILSYVNWYQQKPGKAPKLVIYATTSLASGVPSRFSGSGSGTDFTLTISSLQPEDFATYYCQQSYDTPLTFGGGTKVEIK | 2.7 OD | 0.827 OD | 0.825 OD |
| 371_B12 (antibody, V domains shown, Group III) VH: EVQLLESGGGLVQPGGSLRLSCAASGFTFSDYSMNWVRQAPGKGLEWVAGINYNSGYTSYADSVKGRFTISRDNSKNTLYLQMNSLRAEDTAVYYCARGANWHDTALDYWGQGTLVTVSS VL: DIQMTQSPSSLSASVGDRVTITCRASQSIVTYLNWYQQKPGKAPKLVIYAATSRHSGVPSRFSGSGSGTDFTLTISSLQPEDFATYYCQQSYNNPLTFGGGTKVEIK | 3.48 OD | 2.4 OD | 2.56 OD |

Now from value to binder:

| optical density [1] | optical density [2] | optical density [3] | Binder |
| --- | --- | --- | --- |
| 3.59 OD | 2.27 OD | 2 OD | 371_C01 (antibody, V domains shown, Group III) VH: EVQLLESGGGLVQPGGSLRLSCAASGFTFSSYGMHWVRQAPGKGLEWVSSINYNGGYTGYADSVKGRFTISRDNSKNTLYLQMNSLRAEDTAVYYCARGANWHDTHLDYWGQGTLVTVSS VL: DIQMTQSPSSLSASVGDRVTITCRASQSIVSYLNWYQQKPGKAPKLLIYAATSRHSGVPSRFSGSGSGTDFTLTISSLQPEDFATYYCQQSYDNPLTFGGGTKVEIK |
| 3.45 OD | 2.25 OD | 2.05 OD | 371_C04 (antibody, V domains shown, Group III) VH: EVQLLESGGGLVQPGGSLRLSCAASGFTFDSYGMNWVRQAPGKGLEWVSGINYNSGYKGYADSVKGRFTISRDNSKNTLYLQMNSLRAEDTAVYYCARGANWHDTALDYWGQGTLVTVSS VL: DIQMTQSPSSLSASVGDRVTITCRASQSILSYLNWYQQKPGKAPKLLIYAATSRASGVPSRFSGSGSGTDFTLTISSLQPEDFATYYCQQSYSTPLTFGGGTKVEIK |
| 3.08 OD | 1.35 OD | 1.24 OD | 371_C05 (antibody, V domains shown, Group III) VH: EVQLLESGGGLVQPGGSLRLSCAASGFTFSDYGMHWVRQAPGKGLEWVANINYNGGYTGYADSVKGRFTISRDNSKNTLYLQMNSLRAEDTAVYYCARGANWHDTALDYWGQGTLVTVSS VL: DIQMTQSPSSLSASVGDRVTITCRASQSILSYLNWYQQKPGKAPKLLIYAATSRASGVPSRFSGSGSGTDFTLTISSLQPEDFATYYCQQSYDSPLTFGGGTKVEIK |
| 3.68 OD | 3.2 OD | 3.1 OD | 371_C12 (antibody, V domains shown, Group III) VH: EVQLLESGGGLVQPGGSLRLSCAASGFTFSSYSMNWVRQAPGKGLEWVAGINYNSGYKSYADSVKGRFTISRDNSKNTLYLQMNSLRAEDTAVYYCARGANWHDTHLDYWGQGTLVTVSS VL: DIQMTQSPSSLSASVGDRVTITCRASQSIVSYVNWYQQKPGKAPKLLIYAATSRASGVPSRFSGSGSGTDFTLTISSLQPEDFATYYCQQSYDTPLTFGGGTKVEIK |
| 3.58 OD | 2.99 OD | 2.94 OD | 371_D02 (antibody, V domains shown, Group III) VH: EVQLLESGGGLVQPGGSLRLSCAASGFTFDDYSMNWVRQAPGKGLEWVAGINYNGGYKSYADSVKGRFTISRDNSKNTLYLQMNSLRAEDTAVYYCARGANWHDTALDYWGQGTLVTVSS VL: DIQMTQSPSSLSASVGDRVTITCRASQSIVTYLNWYQQKPGKAPKLLIYAATSRASGVPSRFSGSGSGTDFTLTISSLQPEDFATYYCQQSYDSPLTFGGGTKVEIK |
| 3.3 OD | 1.29 OD | 1.02 OD | 371_D04 (antibody, V domains shown, Group III) VH: EVQLLESGGGLVQPGGSLRLSCAASGFTFDDYSMNWVRQAPGKGLEWVAGINYNGGYTGYADSVKGRFTISRDNSKNTLYLQMNSLRAEDTAVYYCARGANWHDTHLDYWGQGTLVTVSS VL: DIQMTQSPSSLSASVGDRVTITCRASQSIVSYVNWYQQKPGKAPKLLIYAATSLASGVPSRFSGSGSGTDFTLTISSLQPEDFATYYCQQSYENPLTFGGGTKVEIK |
| 3.44 OD | 3.03 OD | 3 OD | 371_E06 (antibody, V domains shown, Group III) VH: EVQLLESGGGLVQPGGSLRLSCAASGFTFSSYSMNWVRQAPGKGLEWVSGINYNGGYTSYADSVKGRFTISRDNSKNTLYLQMNSLRAEDTAVYYCARGANWHDTALDYWGQGTLVTVSS VL: DIQMTQSPSSLSASVGDRVTITCRASQSISTYLNWYQQKPGKAPKLLIYAVTSLHSGVPSRFSGSGSGTDFTLTISSLQPEDFATYYCQQSYESPLTFGGGTKVEIK |
